This passage reports infrared fluorescence results from US10201282B2 (The Regents of the University of California, priority 2014, dated 2019).

The target in this test is T1, TEV protease (Tobacco etch virus, UniProt P04517).
T1 construct: With co-expression of the TEV protease; expressed in transfected cells; host or cells: HEK293 / HEK293T
The test is described as follows: iTEV (EK) coiled-coil sensor in HEK293 cells without or with TEV protease. Format: cell-based. An excerpt:
HEK293 cells were transfected with the iTEV (EK) sensor without (top two panels) or with (bottom two panels) TEV protease.
For example, heterodimeric coiled coils were used to replace split GFP in iTEV (De Crescenzo, G., Litowski, J. R., Hodges, R. S. & O'Connor-McCourt, M. D. Real-Time Monitoring of the Interactions of Two-Stranded de NovoDesigned Coiled-Coils: Effect of Chain Length on the Kinetic and Thermodynamic Constants of Binding †. Biochemistry 42, 1754-1763 (2003)).

T1 sequence (P04517 2038-2279): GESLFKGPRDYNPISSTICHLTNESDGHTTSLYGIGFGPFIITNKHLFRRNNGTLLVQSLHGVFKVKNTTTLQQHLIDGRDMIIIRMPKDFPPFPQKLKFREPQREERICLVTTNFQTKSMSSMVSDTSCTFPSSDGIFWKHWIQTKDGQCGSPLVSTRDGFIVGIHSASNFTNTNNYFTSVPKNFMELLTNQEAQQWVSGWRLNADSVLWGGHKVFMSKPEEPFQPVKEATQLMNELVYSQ

B1: iTEV (EK) (protein)
chain: MGGSKVSALKEKVSALKEKVSALKEKVSALKEKVSALKEGGSGSTTNIAPALDGAFHRITSSSSLMGLCDETATIIREITGYDRVMVVRFDEEGNGEILSERRRADLEAFLGNRYPASTIPQIARRLYEHNRVRLLVDVNYTPVPLQPRISPLNGRDLDMSLSCLRSMSPIHQKYMQDMGVGATLVCSLMVSGRLWGLIACHHYEPRFVPFHIRAAGEALAETCAIRIATLESENLYFQSEFCEREQIHLAGSIQPHGILLAVKEPDNVVIQASINAAEFLNTNSVVGRPLRDLGGDLPLQILPHLNGPLHLAPMTLRCTVGSPPRRVDCTIHRPSNGGLIVELEPATKLEGGGSGGSEVSALEKEVSALEKEVSALEKEVSALEKEVSALEK
modifications: (Amino acid sequence of iTEV(+) 5.1)
B1: the infrared fluorescence result is “becomes infrared fluorescent” (TEV protease co-expressed) and “not infrared fluorescent” (without TEV protease).
